Publication PMC10397247
Where two headings read alike, the source gives them in different places.

Columns and labels:
AP8-AA = target: T1, AP8-AA; assay: two-hybrid library CCmax;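 also: natural log of median RNA to DNA barcode read ratio; higher means stronger binding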
T1 chain: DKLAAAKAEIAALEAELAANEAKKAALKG

O13-AA = target: T2, O13-AA; assay: two-hybrid library CCmax; conditions: mean of both orientations;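 also: natural log of median RNA to DNA barcode read ratio; higher means stronger binding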
T2 chain: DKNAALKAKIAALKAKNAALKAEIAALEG

AP6-AA = target: T3, AP6-AA; assay: two-hybrid library CCmax;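 also: natural log of median RNA to DNA barcode read ratio; higher means stronger binding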
T3 chain: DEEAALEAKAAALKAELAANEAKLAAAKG

P4-AA = target: T4, P4-AA; assay: two-hybrid library CCmax;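 also: natural log of median RNA to DNA barcode read ratio; higher means stronger binding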
T4 chain: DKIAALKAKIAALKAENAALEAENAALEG

O11-AA = target: T5, O11-AA; assay: two-hybrid library CCmax; conditions: mean of both orientations;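 also: natural log of median RNA to DNA barcode read ratio; higher means stronger binding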
T5 chain: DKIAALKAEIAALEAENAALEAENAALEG

AP4-AA = target: T6, AP4-AA; assay: two-hybrid library CCmax;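 also: natural log of median RNA to DNA barcode read ratio; higher means stronger binding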
T6 chain: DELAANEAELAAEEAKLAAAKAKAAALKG

P10-AA = target: T7, P10-AA; assay: two-hybrid library CCmax
T7 chain: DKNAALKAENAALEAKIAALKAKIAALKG

P2-AA = target: T8, P2-AA; assay: two-hybrid library CCmax
T8 chain: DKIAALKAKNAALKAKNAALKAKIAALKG

AP2-AA = target: T9, AP2-AA; assay: two-hybrid library CCmax
T9 chain: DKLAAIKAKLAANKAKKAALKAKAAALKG

AP1-AA = target: T10, AP1-AA; assay: two-hybrid library CCmax
T10 chain: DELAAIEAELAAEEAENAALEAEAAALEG

GCN2_T = assay: two-hybrid library CCmax
P7-AA = target: T11, P7-AA; assay: two-hybrid library CCmax
T11 chain: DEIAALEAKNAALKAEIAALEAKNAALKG

AP7-AA = target: T12, AP7-AA; assay: two-hybrid library CCmax
T12 chain: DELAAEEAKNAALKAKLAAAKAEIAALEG

P11-AA = target: T13, P11-AA; assay: two-hybrid library CCmax
T13 chain: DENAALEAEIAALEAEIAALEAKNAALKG

P8-AA = target: T14, P8-AA; assay: two-hybrid library CCmax
T14 chain: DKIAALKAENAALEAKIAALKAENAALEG

4H_GCN4 = assay: two-hybrid library CCmax; conditions: mean of both orientations
P9-AA = target: T15, P9-AA; assay: two-hybrid library CCmax
T15 chain: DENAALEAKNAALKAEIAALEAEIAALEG

O14-AA = target: T16, O14-AA; assay: two-hybrid library CCmax; conditions: mean of both orientations
T16 chain: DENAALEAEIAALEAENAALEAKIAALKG

P1-AA = target: T17, P1-AA; assay: two-hybrid library CCmax
T17 chain: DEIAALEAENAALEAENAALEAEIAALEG

zCON9_B = target: T18, zCON9_B; assay: two-hybrid library CCmax; conditions: mean of both orientations
T18 chain: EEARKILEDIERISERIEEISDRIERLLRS

zCON9_D = target: T19, zCON9_D; assay: two-hybrid library CCmax; conditions: mean of both orientations
T19 chain: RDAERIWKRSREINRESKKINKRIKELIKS

zCON9_A = target: T20, zCON9_A; assay: two-hybrid library CCmax
T20 chain: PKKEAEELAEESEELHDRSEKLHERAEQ

AP5-AA = target: T21, AP5-AA; assay: two-hybrid library CCmax
T21 chain: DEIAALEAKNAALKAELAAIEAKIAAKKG

AP3-AA = target: T22, AP3-AA; assay: two-hybrid library CCmax
T22 chain: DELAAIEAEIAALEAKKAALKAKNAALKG

P3-AA = target: T23, P3-AA; assay: two-hybrid library CCmax
T23 chain: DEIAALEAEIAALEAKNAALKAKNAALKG

P12-AA = target: T24, P12-AA; assay: two-hybrid library CCmax
T24 chain: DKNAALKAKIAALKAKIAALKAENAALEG

4H_BCR = target: T25, 4H_BCR; assay: two-hybrid library CCmax
T25 chain: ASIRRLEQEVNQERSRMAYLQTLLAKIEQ

O8 = target: T26, O8; assay: two-hybrid library CCNG1
T26 chain: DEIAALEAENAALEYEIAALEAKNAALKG

O3 = target: T27, O3; assay: two-hybrid library CCNG1
T27 chain: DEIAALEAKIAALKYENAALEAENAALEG

O5 = target: T28, O5; assay: two-hybrid library CCNG1
T28 chain: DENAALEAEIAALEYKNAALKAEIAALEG

O4 = target: T29, O4; assay: two-hybrid library CCNG1
T29 chain: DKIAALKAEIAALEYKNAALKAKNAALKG

O16 = target: T30, O16; assay: two-hybrid library CCNG1
T30 chain: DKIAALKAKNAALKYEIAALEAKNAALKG

O2 = target: T31, O2; assay: two-hybrid library CCNG1
T31 chain: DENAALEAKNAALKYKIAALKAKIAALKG

O7 = target: T32, O7; assay: two-hybrid library CCNG1
T32 chain: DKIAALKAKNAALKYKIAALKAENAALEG

O15 = target: T33, O15; assay: two-hybrid library CCNG1
T33 chain: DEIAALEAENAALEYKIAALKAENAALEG

O6 = target: T34, O6; assay: two-hybrid library CCNG1
T34 chain: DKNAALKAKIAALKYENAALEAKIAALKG

O9 = target: T35, O9; assay: two-hybrid library CCNG1
T35 chain: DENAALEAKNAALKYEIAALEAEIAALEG

O16-bP = target: T36, O16-bP; assay: two-hybrid library CCNG1
T36 chain: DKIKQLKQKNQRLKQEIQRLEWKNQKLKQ

O7-bP = target: T37, O7-bP; assay: two-hybrid library CCNG1
T37 chain: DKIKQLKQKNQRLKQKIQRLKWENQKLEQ

O6-bP = target: T38, O6-bP; assay: two-hybrid library CCNG1
T38 chain: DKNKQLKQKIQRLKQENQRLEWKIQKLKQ

O8-bP = target: T39, O8-bP; assay: two-hybrid library CCNG1
T39 chain: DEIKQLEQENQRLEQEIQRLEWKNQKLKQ

O2-bP = target: T40, O2-bP; assay: two-hybrid library CCNG1
T40 chain: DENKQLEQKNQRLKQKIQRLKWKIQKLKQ

O5-bP = target: T41, O5-bP; assay: two-hybrid library CCNG1
T41 chain: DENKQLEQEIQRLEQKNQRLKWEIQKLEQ

O9-bP = target: T42, O9-bP; assay: two-hybrid library CCNG1
T42 chain: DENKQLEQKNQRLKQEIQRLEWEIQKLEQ

O4-bP = target: T43, O4-bP; assay: two-hybrid library CCNG1
T43 chain: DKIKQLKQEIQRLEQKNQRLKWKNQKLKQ

O15-bP = target: T44, O15-bP; assay: two-hybrid library CCNG1
T44 chain: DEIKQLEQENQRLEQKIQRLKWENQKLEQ

O3-bP = target: T45, O3-bP; assay: two-hybrid library CCNG1
T45 chain: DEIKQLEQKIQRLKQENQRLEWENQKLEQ

Sequence of 4H_GCN4 (chain, as listed by the source): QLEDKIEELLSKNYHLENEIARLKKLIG

ASIRRLEQEVNQERSRMAYLQTLLAKIEQ [4H_BCR]
interaction score (AP8-AA; mean of both orientations): -1.28
interaction score (O13-AA): -1.72
interaction score (AP6-AA; mean of both orientations): -1.75
interaction score (P4-AA; mean of both orientations): -1.94
interaction score (O11-AA): -1.66
interaction score (AP4-AA; mean of both orientations): -1.51
interaction score (P10-AA; mean of both orientations): -1.67
interaction score (P2-AA; mean of both orientations): -2.08
interaction score (AP2-AA; mean of both orientations): -2.54
interaction score (AP1-AA; mean of both orientations): -1.92
interaction score (GCN2_T): -2.01
interaction score (P7-AA; mean of both orientations): -1.28
interaction score (AP7-AA; mean of both orientations): -1.69
interaction score (P11-AA; mean of both orientations): -1.68
interaction score (P8-AA; mean of both orientations): -1.85
interaction score (4H_GCN4): -1.7
interaction score (P9-AA; mean of both orientations): -1.88
interaction score (O14-AA): -0.776
interaction score (P1-AA; mean of both orientations): -1.71
interaction score (zCON9_B): -0.916
interaction score (zCON9_D): -1.5
interaction score (zCON9_A): -2.12
interaction score (AP5-AA; mean of both orientations): -1.5
interaction score (AP3-AA; mean of both orientations): -1.8
interaction score (P3-AA; mean of both orientations): -2.12
interaction score (P12-AA; mean of both orientations): -1.94
interaction score (4H_BCR): -1.84

KRAKQLRKRLQALEWQLAQIRKELQAAEK [4H_APH3]
interaction score (AP8-AA): -0.758
interaction score (AP6-AA): -2.3
interaction score (P4-AA): -2.3
interaction score (AP4-AA): -1.76
interaction score (P10-AA): -0.731
interaction score (P2-AA): -1.85
interaction score (AP2-AA): -1.83
interaction score (AP1-AA): -1.7
interaction score (P7-AA): -1.07
interaction score (AP7-AA): -1.94
interaction score (P11-AA): 0.988
interaction score (P8-AA): -1.41
interaction score (P9-AA): -0.77
interaction score (P1-AA): -1.41
interaction score (AP5-AA): -0.968
interaction score (P3-AA): -1.01
interaction score (P12-AA): -1.53
interaction score (4H_BCR): -1.42

DELAAIEAELAAEEAENAALEAEAAALEG [AP1-AA]
interaction score (AP8-AA; mean of both orientations): -1.34
interaction score (AP6-AA; mean of both orientations): -2.13
interaction score (P4-AA; mean of both orientations): -1.4
interaction score (AP4-AA; mean of both orientations): -1.14
interaction score (P10-AA; mean of both orientations): -1.61
interaction score (P2-AA; mean of both orientations): 0.117
interaction score (AP2-AA; mean of both orientations): -1.59
interaction score (AP1-AA): -1.8
interaction score (GCN2_T): -2.11
interaction score (P7-AA; mean of both orientations): -1.65
interaction score (AP7-AA; mean of both orientations): -1.41
interaction score (P11-AA; mean of both orientations): -1.38
interaction score (P8-AA; mean of both orientations): -1.49
interaction score (P9-AA; mean of both orientations): -1.77
interaction score (P1-AA; mean of both orientations): -1.54
interaction score (AP5-AA; mean of both orientations): -1.52
interaction score (AP3-AA; mean of both orientations): -1.43
interaction score (P3-AA): -1.19
interaction score (P12-AA; mean of both orientations): -1.66

KRLKQLRKRKQAKRWEEAQIEKELQAIEK [4H_APH2]
interaction score (AP8-AA): -1.53
interaction score (AP6-AA): -1.16
interaction score (P4-AA): -1.76
interaction score (AP4-AA): -1.35
interaction score (P10-AA): -1.63
interaction score (AP2-AA): -2.23
interaction score (AP1-AA): -1.22
interaction score (P7-AA): -1.59
interaction score (AP7-AA): -1.91
interaction score (P11-AA): -1.87
interaction score (P8-AA): -1.79
interaction score (P9-AA): -1.85
interaction score (P1-AA): -1.37
interaction score (AP5-AA): -1.71
interaction score (AP3-AA): -1.71
interaction score (P12-AA): -1.31
interaction score (4H_BCR): -1.77

KRLKQIEKRLQAKEWEKAQLRKELQALRK [4H_APH4]
interaction score (AP8-AA): -1.39
interaction score (AP6-AA): -2.8
interaction score (P4-AA): -2.31
interaction score (AP4-AA; mean of both orientations): -1.78
interaction score (P10-AA): -1.38
interaction score (P2-AA): -1.88
interaction score (AP2-AA): -2.2
interaction score (AP1-AA; mean of both orientations): -1.81
interaction score (P7-AA): -1.7
interaction score (AP7-AA): -2.06
interaction score (P11-AA): -1.36
interaction score (P8-AA): -2.2
interaction score (P9-AA): -1.79
interaction score (P1-AA): -2.2
interaction score (AP5-AA): -1.61
interaction score (AP3-AA): -1.44
interaction score (P3-AA): -1.05
interaction score (P12-AA): -2.07
interaction score (4H_BCR): -1.95

DEIAALEAENAALEYKIAALKAENAALEG [O15]
interaction score (O8): -1.73
interaction score (O3): -2.17
interaction score (O5): -1.45
interaction score (O4): -1.8
interaction score (O16): 1.41
interaction score (O2): -2.21
interaction score (O7): -0.707
interaction score (O15): -1.57
interaction score (O6): -2.48
interaction score (O9): -2.28

DEIKQLEQENQRLEQKIQRLKWENQKLEQ [O15-bP]
interaction score (O16-bP): 1.51
interaction score (O7-bP): -0.235
interaction score (O6-bP): -0.729
interaction score (O8-bP): -0.223
interaction score (O2-bP): -1.39
interaction score (O5-bP): -0.178
interaction score (O9-bP): -1.06
interaction score (O4-bP): -1.2
interaction score (O15-bP): -0.0595
interaction score (O3-bP): -0.872

DKIAALKAKNAALKYEIAALEAKNAALKG [O16]
interaction score (O8): -0.596
interaction score (O3): -1.85
interaction score (O5): -1.91
interaction score (O4): -1.89
interaction score (O16): -2.69
interaction score (O2): -2.29
interaction score (O7): -1.81
interaction score (O6): -1.46
interaction score (O9): -2.26

DKIKQLKQKNQRLKQEIQRLEWKNQKLKQ [O16-bP]
interaction score (O16-bP): -0.576
interaction score (O7-bP): -1.1
interaction score (O6-bP): 0.641
interaction score (O8-bP): 1.44
interaction score (O2-bP): -1.5
interaction score (O5-bP): -0.672
interaction score (O9-bP): -1.13
interaction score (O4-bP): -1.21
interaction score (O3-bP): -1.06
